# Measured values published in the RNAGym collection of RNA variant scans (doi:10.7554/elife.80360).
# B1: CPEB3 Ribozyme (parent)
# chain: GGGGGCCACAGCAGAAGCGUUCACGUCGCGGCCCCUGUCAGAUUCUGGUGAAUCUGCGAAUUCUGCUGU
# Variants of: B1
# Assay: self-cleavage, relative activity (ratio to wild type); higher = more cleavage; co-transcriptional
row,Variant,self-cleavage
1,GGGGGCCACAGCAGAAGCGUUCACGUCGCGGCCCCUGUCAGAUUCUGGUAAAUCUGCGAAUUGUGCUGU,0.859
2,GGGGGCCACAGCAGAAGCGUUCACGUCGCGGCCCCUGUCAGAUUCUGGUAAAUCUGCGAAUUAUGCUGU,0.856
3,GGGGGCCACAGCAGAAGCGUUCACGUCGCGGCCCCUGUCAGAUUCUGGUAAAGCUGCGAAUUCUGCUGU,0.9
4,GGGGGCCACAGCAGAAGCGUUCACGUCGCGGCCCCUGUCAGAUUCUGGUAAACCUGCGAAUUCUGCUGU,0.949
5,GGGGGCCACAGCAGAAGCGUUCACGUCGCGGCCCCUGUCAGAUUCUGGUCAAUCUGCUAAUUCUGCUGU,0.995
6,GGGGGCCACAGCAGAAGCGUUCACGUCGCGGCCCCUGUCAGAUUCUGGUCAAUCUGCCAAUUCUGCUGU,0.963
7,GGGGGCCACAGCAGAAGCGUUCACGUCGCGGCCCCUGUCAGAUUCUGGUAAAUCUGCGAAUUCUGCUGC,1.07
8,GGGGGCCACAGCAGAAGCGUUCACGUCGCGGCCCCUGUCAGAUUCUGGUAAAUCUGCGAAUUCUGCUGG,1.06
9,GGGGGCCACAGCAGAAGCGUUCACGUCGCGGCCCCUGUCAGAUUCUGGUCAAGCUGCGAAUUCUGCUGU,0.654
10,GGGGGCCACAGCAGAAGCGUUCACGUCGCGGCCCCUGUCAGAUUCUGGUCAACCUGCGAAUUCUGCUGU,0.866
11,GGGGGCCACAGCAGAAGCGUUCACGUCGCGGCCCCUGUCAGAUUCUGGUAAAUCUACGAAUUCUGCUGU,0.909
12,GGGGGCCACAGCAGAAGCGUUCACGUCGCGGCCCCUGUCAGAUUCUGGUAAAUCUGCGAAUUCUACUGU,0.901
13,GGGGGCCACAGCAGAAGCGUUCACGUCGCGGCCCCUGUCAGAUUCUGGUAAAUCUGCGAAUUCUUCUGU,0.882
14,GGGGGCCACAGCAGAAGCGUUCACGUCGCGGCCCCUGUCAGAUUCUGGUAAAUCUGCGAGUUCUGCUGU,1.02
15,GGGGGCCACAGCAGAAGCGUUCACGUCGCGGCCCCUGUCAGAUUCUGGUAAAUCUGCGAUUUCUGCUGU,0.449
16,GGGGGCCACAGCAGAAGCGUUCACGUCGCGGCCCCUGUCAGAUUCUGGUCUAUCUGCGAAUUCUGCUGU,0.942
17,GGGGGCCACAGCAGAAGCGUUCACGUCGCGGCCCCUGUCAGAUUCUGGUCAAUCUGAGAAUUCUGCUGU,0.366
18,GGGGGCCACAGCAGAAGCGUUCACGUCGCGGCCCCUGUCAGAUUCUGGUCAAUCUGUGAAUUCUGCUGU,0.384
19,GGGGGCCACAGCAGAAGCGUUCACGUCGCGGCCCCUGUCAGAUUCUGGUUAAUCUGCGUAUUCUGCUGU,0.834
20,GGGGGCCACAGCAGAAGCGUUCACGUCGCGGCCCCUGUCAGAUUCUGGUUAAUCUGCGGAUUCUGCUGU,1.04

row,Variant,self-cleavage
1,GGGGGCCACAGCAGAAGCGUUCACGUCGCGGCCCCUGUCAGAUUCUGGUCAAUCUGCGGAUUCUGCUGU,1.03
2,GGGGGCCACAGCAGAAGCGUUCACGUCGCGGCCCCUGUCAGAUUCUGGUCAAUCUGCGUAUUCUGCUGU,0.767
3,GGGGGCCACAGCAGAAGCGUUCACGUCGCGGCCCCUGUCAGAUUCUGGUCAAUCUGCGCAUUCUGCUGU,0.68
4,GGGGGCCACAGCAGAAGCGUUCACGUCGCGGCCCCUGUCAGAUUCUGGUCAAUCUGCGAAUUCUGCUGA,0.978
5,GGGGGCCACAGCAGAAGCGUUCACGUCGCGGCCCCUGUCAGAUUCUGGUCAAUCUGCGAAUUCUGCUGG,1.06
6,GGGGGCCACAGCAGAAGCGUUCACGUCGCGGCCCCUGUCAGAUUCUGGUAAAUCUGCGAAUUCUGCUUU,1.02
7,GGGGGCCACAGCAGAAGCGUUCACGUCGCGGCCCCUGUCAGAUUCUGGUAAAUCUGCGAAUUCUGCUCU,1.02
8,GGGGGCCACAGCAGAAGCGUUCACGUCGCGGCCCCUGUCAGAUUCUGGUUAUUCUGCGAAUUCUGCUGU,0.94
9,GGGGGCCACAGCAGAAGCGUUCACGUCGCGGCCCCUGUCAGAUUCUGGUUACUCUGCGAAUUCUGCUGU,0.979
10,GGGGGCCACAGCAGAAGCGUUCACGUCGCGGCCCCUGUCAGAUUCUGGUUUAUCUGCGAAUUCUGCUGU,0.995
11,GGGGGCCACAGCAGAAGCGUUCACGUCGCGGCCCCUGUCAGAUUCUGGUUGAUCUGCGAAUUCUGCUGU,1.01
12,GGGGGCCACAGCAGAAGCGUUCACGUCGCGGCCCCUGUCAGAUUCUGGUCAGUCUGCGAAUUCUGCUGU,0.985
13,GGGGGCCACAGCAGAAGCGUUCACGUCGCGGCCCCUGUCAGAUUCUGGUCACUCUGCGAAUUCUGCUGU,0.946
14,GGGGGCCACAGCAGAAGCGUUCACGUCGCGGCCCCUGUCAGAUUCUGGUCAAUCUGCGAACUCUGCUGU,0.762
15,GGGGGCCACAGCAGAAGCGUUCACGUCGCGGCCCCUGUCAGAUUCUGGUCAAUCUGCGAAAUCUGCUGU,0.823
16,GGGGGCCACAGCAGAAGCGUUCACGUCGCGGCCCCUGUCAGAUUCUGGUCAAUCUGCGAAGUCUGCUGU,0.526
17,GGGGGCCACAGCAGAAGCGUUCACGUCGCGGCCCCUGUCAGAUUCUGGUAAAUCAGCGAAUUCUGCUGU,0.912
18,GGGGGCCACAGCAGAAGCGUUCACGUCGCGGCCCCUGUCAGAUUCUGGUCAAUCUGCGAAUUCGGCUGU,0.844
19,GGGGGCCACAGCAGAAGCGUUCACGUCGCGGCCCCUGUCAGAUUCUGGUCAAUCUGCGAAUUCCGCUGU,0.823
